Data: PMC7684302, “A novel Schmallenberg virus subunit vaccine candidate protects IFNAR^-/- mice against virulent SBV challenge” (Scientific Reports, 2020)

Target: the molecule itself
Assay: SEC; HiLoad 16/60 Superdex 200 pg column in 1X PBS, after Ni-NTA

B1: Schmallenberg virus nucleoprotein (natural protein)
chain: MSSQFIFEDVPQRNAATFNPEVGYVAFIGKYGQQLNFGVARVFFLNQKKAKMVLHKTAQPSVDLTFGGVKFTVVNNHFPQYVSNPVPDNAITLHRMSGYLARWIADTCKASVLKLAEASAQIVMPLAEVKGCTWADGYTMYLGFAPGAEMFLDAFDFYPLVIEMHRVLKDNMDVNFMKKVLRQRYGTMTAEEWMTQKITEIKAAFNSVGQLAWAKSGFSPAARTFLQQFGINI
notes: Nucleoprotein (N) of Schmallenberg virus, encoded on the S segment; cDNA ligated through AgeI/XhoI into pET-28M-SUMO3 in place of GFP; also called SBV-N; SBV N; source: E. coli BL21, purified (Ni-NTA, SEC)
  binding result: binds
